The text below walks through data of patent US20150140573A1.

Data set [1] concerns the target barley limit dextrinase present in barley malt extract (barley (Hordeum vulgare subsp. vulgare)). In words: cell-based or functional assay. As to conditions: scale: fraction of the rate of the uninhibited sample.
For data set [2], the target named is recombinant barley limit dextrinase inhibitor.

Take “recombinant barley limit dextrinase inhibitor”: the rate of o-NP release from compound 6 in barley malt extract (absorbance at 430 nm), with and without added limit dextrinase inhibitor in data set [1] was determined as 0.1.

B1: barley limit dextrinase present in barley malt extract (protein)
chain: MAVGETGASVSAAEAEAEATQAFMPDARAYWVTSDLIAWNVGELEAQSVCLYASRAAAMSLSPSNGGIQGYDSKVELQPESAGLPETVTQKFPFISSYRAFKVPSSVDVASLVKCQLVVASFGADGKHVDVTGLQLPGVLDDMFAYTGPLGAVFSEDSVSLHLWAPTAQGVSVCFFDGPAGPALETVQLKESNGVWSVTGPREWENRYYLYEVDVYHPTKAQVLKCLAGDPYARSLSANGARTWLVDINNETLKPASWDELADEKPKLDSFSDITIYELHIRDFSAHDGTVDSDSRGGFRAFAYQASAGMEHLRKLSDAGLTHVHLLPSFHFAGVDDIKSNWKFVDECELATFPPGSDMQQAAVVAIQEEDPYNWGYNPVLWGVPKGSYASDPDGPSRIIEYRQMVQALNRIGLRVVMDVVYNHLDSSGPCGISSVLDKIVPGYYVRRDTNGQIENSAAMNNTASEHFMVDRLIVDDLLNWAVNYKVDGFRFDLMGHIMKRTMVTKSALQSLTTDAHGVDGSKIYLYGEGWDFAEVARNQRGINGSQLNMSGTGIGSFNDRIRDAINGGNPFGNPLQQGFNTGLFLEPNGFYQGNEADTRRSLATYADQIQIGLAGNLRDYVLISHTGEAKKGSEIHTFDGLPVGYTASPIETINYVSAHDNETLFDVISVKTPMILSVDERCRINHLASSMMALSQGIPFFHAGDEILRSKSIDRDSYNSGDWFNKLDFTYETNNWGVGLPPSEKNEDNWPLMKPRLENPSFKPAKGHILAALDSFVDILKIRYSSPLFRLSTANDIKQRVRFHNTGPSLVPGVIVMGIEDARGESPEMAQLDTNFSYVVTVFNVCPHEVSMDIPALASMGFELHPVQVNSSDTLVRKSAYEAATGRFTVPGRTVSVFVEPRC
Take B1: the “hydrolysis of compound 19 in barley malt extract after 1 h at 60 C (UPLC, fluorescence detection), with and without added LDI” value in data set [2] is “When LDI was added to the extract, almost all activity of limit dextrinase was inhibited, and only negligible amounts of the compound 19 was hydrolyzed”.
